Source: the nanobody polyreactivity screen of Harvey et al. (2022)

Assay: yeast display, Sf9 membrane polyspecificity reagent, FACS + sequencing; frameworks hold sequencing errors
Outline: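 Sorting gates, low and high (top ~1%), were placed on anti-HA fluorescence to track expression and on streptavidin fluorescence to track reagent binding. A clone's polyreactivity label is taken from the gate it came out of. The reagent was 10% biotinylated, detergent-solubilized Sf9 membrane, applied for 1 hour at 4 °C to galactose-induced yeast display cells.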

Sequence | polyreactivity (PSR sort gate)
QVQLVESGGGLVQAGGSLRLSCAASGFTFRANGMGWYRQATGKERELVATITSGGTTNYADSVKGRFTISRDNAKNTVYLQMNSLKPEDTAVYYCAKRFGPAYFRLYDYWGQGTQVTVSS | low polyreactivity
QVQLVESGGGLVQAGGSLRLSCAASGSTFKWYAMGWYRQAPGKERELVATISSGGSTNYADSVKGRFTISRDNAKNTVYLQMNSLKPEDTAVYYCAAANFKWGQGTQVTVTS | low polyreactivity
QVQLVDSGGGLVQAGGSLRLSCAASVRIFYEYAMGWYRKAPGKERQFVASISRTDGGTYYADSVKGRFTISRDNAKNTVYLQMNSLKPEENAVYYCATRAYYNTEVYYWGQGTQVTVSS | high polyreactivity
QVQLVESGGGLVQAGGSLRLSCAASGGTFYSYAMGWYRQAPGKEREFVAAITYGGGSTYYADSEKGRFTISRDNAKNSVYLQKNSLKPEDTAVYYCNARRYGSRLGERYYYWGQGTQVTVSS | high polyreactivity
QVQLVESGGGLVQAGGSLRLSCAASGTIFDSYAKVWYRQAPGKERELVAAISSSVGSTYYADSVKGRFTISRDNAKNTVYLQMNSLKPEDTAVYYCNADEYWASGYDPYDYWGQGTQVTVSS | low polyreactivity
QDQLVESGGGLVQAGGSLRLSCAASGLIFGGYDMGWYRQAPGKERELVAAISCDDGDTYYADSVKGRFTISRDNAKNTVYLQMNSLKPEDTAVYYCAAESLSGAHGYWGQGTQVTVSS | low polyreactivity
QVQLVESGGGLVQAGGSLRLSCAASGSIFSVYAMGWYRQAPGKERELVAAINWDGTSTDYADSVKGRFTISRDNAKNTVYLQMNSLKPEDTAVYYCAAEGHTAFLVYRVSPLQYDYWGQGTQVTVSS | low polyreactivity
QVQLVESGGGLVQAGGSLRLSCAASGITFYPYTMGWYRQAPGKERELVASISTSGTNYADSVKGRFTISRDNAKNTVYLQMNSLKPEDTAVYYCAADIWSYYRSTHVDSWGQGTQVTVSS | low polyreactivity
QVQLVESGGGLVQAGGSLRLSCAASGRTFARYAMGWYRPAPGKERELVAAISSSGGSTYYADSVKWRFTISRDNAKNTVYLQMNSLKPEDTAVYYCVTYRNWWYDFWGQGTQVTGSS | high polyreactivity
QVQLVESCGGLVQAGGSLSLSCAASGSTFNHYAMGWYRQATGKEREFVAAISWSGGSTYYADYVQGRFTISRDNAKNTGYLQMNSLKPEDTAVYYCNAAVSQFSHRWRRRLTFDYWGQGTQVTVSS | high polyreactivity
QVQLVESGGGLVQAGGSLRLSCAASGSTFWQNAMGWYRPAPGKERELVAAIRSRGDRTYYADSVKGRFTISRDNAKNTVYLQMNSLKPEDTAVYYCAAYAGYSDQARYYYWGQGTLVTVSS | high polyreactivity
QVQIVETGGVLVQAGGSLRLSFADAGLTIYIYAMGWYRQAPGKETELFPAISWIGDSTYYADSVKGLFTISRDNAKNTVYLQLNSLKPEDTAVYYCAADSWRYVAEGLWREYDYWGQGTQVTVSS | low polyreactivity
KVQLVESGGGLVQAGGSLRLSCAASGFTFEGYAMGWYRQAPGKEMELVAAISSNGGRTYYADSVKGRFTISRDNAKNTVYLQMNSLKPEDTAVYYCNARRAYSGPDYDYYHGRRYDYWGQGTQVTVSS | low polyreactivity
QVQLVESGGGLVQAGGSLRLSCAASGFIIRGNVMGWYRQAPGKERELVAAISGRGGSTYYADSVKGRFTISRDNAKNTVYLQMNSLKPEDTAVYYCNAAGLYNSRLDYWGQGTQVTVSS | high polyreactivity
QVQLVESGGGLVQAGGSLRLSCAASGRIFAYYAMGRYRQAPGKERELVAAITRSGARTYYADSVKGRFTISRDNAKNTVYLQMNSLKPEDTAVYYCAAEGVRIGTRYDYWGQGTQVTVSS | high polyreactivity
QVQLVESGGGLVQAGGSLRLSCAASGSTSSVYTMGWYRPAPGKERELVASISIRGTRTYADSVKGRFTISRDNAKNTVYLQMNSLKPEDTAVYYCAARYPWYVYTIYGYWGQGTQVTVSS | high polyreactivity
QVQLVESGGRLVQAGGSLRLSCAASGSIFSKYTMGWYRQAPGKERELVAAISRAGSTYYADSVKGRFTISRDNAKNTVYLQMNSLKPEDTAVYYCNARYRGVYPLIGNRRDYYYWGQGTQVTVSS | high polyreactivity
QVQLVESVGGLVLAGGSLRLSCAASGSIFIVNAMGWYRQAPGKERELVAAISGRGGNTNYADSVKGRFTISRDNAKNTVYLQMNSLKPEDTAVYYCAARHTRDYDYWGQGTQVTVSS | low polyreactivity
QVQLVESGVGLVQAGGSLRLSCAASGFLFKYNAMGWYRQAPAKERELVAAISWSGSRTYYADSVKGRFTISRDNAKNTVYLQMNSLKPEDTAVYYCNAVSWRTSRYDYWGQGTQVTVSS | high polyreactivity
QVQLVESGGGLVQAGGSLRLSSAASGSIIKYYAMGWYRQAPGKERELVAAINKSGGTTYYADSVKGRFTISRDNAQNPVYLQMNSLKPEDTAVYYCATDNTVVYQPGNMDFWGQGTQVTVSS | low polyreactivity
QVQLVESGGGLVQAGGSLRLSCAASGIIFELYAMGWYRQAPGKEREFVAAINFSDGSTDYADSVKGRFTISRDNAKNTVYLQMNSLKPEDTAVYYCNADTIAYGSIIHGYWGQGTQVTVSS | low polyreactivity
QVQLVDSGGGLVQAGGSLRLSCAASGRIFRYYAMGWSRQAPGKERELVARITNGAITNYADSVKGRFTISRDNAKNTLYLQRNSLKPEETAVYYCAATQNLYRCGYWGQGTQVTVSS | high polyreactivity

Sequence | polyreactivity (PSR sort gate)
QVQLVESGGGLVQAGGSLRLSCAASGSIFGGYAMGWYRQPPGKERELVAAITWGGGSTYYADSVKGRFTISRDNAKNTVYLQMNSLKPEDTAVYYCAADRSWYDWEDDYWGQGTQVTVSS | low polyreactivity
QVQLVESGGGLVQAGGSLRLSCAASGSIFGGYGMGWYRQAPGKERELVAAINSGSSTYYADSVKGRFTISRDNAKNTVYLQMNSLKPEDTAVYYCAARPYPHSAYEGDYWGRGTQVTVSS | low polyreactivity
QVQLVESGGGLVQAGGSLRLSCAPSGRTFIFYAMGWYRQAPGKERELVAAISSSGSGTYYADSLKGRFTISRDNAKNTVYLQMNSLKPEDTAVYSCAAAVVNSRRRPKYGYWGQGTQVTVSS | low polyreactivity
QVQLVESGGGLVQAGGSLRLSCAASGFIFHYYAMGWYRQAPGKERELVAAISSGGGRTYYADSVKGRFTISRDNAKNTVYLLMNSLKPEDTAVYYCAARYAVNAWGGRRDYWGQGTEVTVSS | high polyreactivity
QVQLVESGGGLVQAGGSLRLSCAASGRIFLWYAMGWYRQAPGKERELVAVITGGGSTNYADSVKGRFTISRDNAKNTVYLQMNSLKPEDTAVYYCATEGYGHGGETDGGVYSDLGYWGQGTQVTVSS | low polyreactivity
QVQLVESGGGLVQAGGSLRLSCDASGSTFYSYTMGWSRQAPGKERELVATISWSGSSTYDADSVKGRFTISRDNAKNTVYLQMNSLTPEDTAVYYSAAVHYDKSAYWWWYNYWGQGTLVTVSS | low polyreactivity
QVQLVESGGGLVQAGGSLRLSCAASGSNFHPYAMGWYRPAPGKEREFVAAITFRGSTYYADSVKGRFTISRDNAKNTVYLQLNSLKPEDTAVYYCAARYNIFRRGSRNYDYWGQGTEVTVSS | high polyreactivity
QVQLVESGGGLVQAGGSLRLSCAASGRIFYPYAMGWYRQAPGKERELVAAIDKGGGSTYYADSVKGRFTISRDNAKNTVYLQMNSLKPEVTAVYYCAAGWEYPYDYWGQGTQVTVSS | low polyreactivity
QVQLVESGGGLVQAGGSLRLSCAASGFIFDIYAMGWYRQAPGKERELVASINWSGGDSTSYADSVKGRFTISRVNAKNTVSLQMNILKPEDTAVYYCIAEYWYYAGGYPDEYDYWGQGPQVTVSS | low polyreactivity
QVQLVESGGGLLQAGGSLSLICAASGFSIYKNAMGWYSQAPGKERELVAAITSSGGYTYYADSVKGRFTISRDNAKNTVYLQMNILKPEDTAVYYCAGSPQAYIADYDYWGQGTQVTVSS | low polyreactivity
QVQLVESGGGLVQAGGSLRLSCAASGIIFKSYAMGWYRQAPGKERELVAAITKRGGSTYYADSVKGRFTISRDNAKNTVYLQMNSLKPEDTAVYYCAADDGVGNTDDYWGQGTQVTVSS | high polyreactivity
QDQLVESGGGLVQAGGSLRLSCAASGSTFVRYDMGWYRQAPGKERELVADISWSGVSTYADSVKGRFTISRDNAKNTVYLQMNSLKPEDTAVYYCAKDSDLYQRGGYYWGQGTQVTVSS | low polyreactivity
QVQLVETGGGLVQAGGSLRLSCAASGSIFGFYAMGWYRQAPGKERELVAAIDSGDSTNYADSVKGRFTISRDNAKNTVYLQMNSLKPEDTAVYYCYAEAWWYFWFDYWGQGTQVTVSS | low polyreactivity
QVQLVESGGGLVQAGGSLRLSCAASGSTFQYYAMGWYRQAPGKERELVAAISSSGGSTYYADSVKGRFTISRDYAKNTVYFQMNSQKPEDTAVYYCAKRFRRFTYTRDYWGQGTQVTVTS | high polyreactivity
QVQLVESGGGLVQAGGSLRVSCAASGFIFLNNAMGWYRQAPGKERELVAAITWSGGSTYYADSVKGRFTISRDNAKNTVYLQMKSLKPEDTAVYYCAADGWLYYGVGYWGQGTQVTVSS | low polyreactivity
QVQLVESGGGLVQAGGSLRLRCAASGRTFTAYTMGLYRQAPGKEREFVASISSGVTYADSVKGRFTISRDNAKITVYLQMNSLKPEDTAVYYCAARLWYVQGYVPYVHHRFDYWGQGTQVTVSS | low polyreactivity
QVQLVESGGGLVQAGGSLRLSCAASGRIFPHNAMGWYRQAPGTERELVAAISSNVGSTYYADSVKGRFTISRDNAKNTVYFQMNSLKPEDTAVYYCAKYRYFAGDGDYWGQGTQVTVSS | low polyreactivity
QFQIVDSVRGLVQAGGSLRLSCAASGITFDFYAIGWYRQAPGKERELVAAISYSGTSTSYADSVKGRFTISRDNAKNTVYLQMNSLKAEDTAVYYCNARIGWTHSYYELDYWGQGTQVTVSS | low polyreactivity
QVQLVESGGGLVQAGGILRLSCAAAGGTLYYYMGWYRQAPGKESEFVAAINIRGDSTYYADSVKGRFTISRDNAKNTVYLQMNSLKPEDTAVYYCAADLPRRSAHYYYWGQGTLVTVSS | low polyreactivity
QVQLVESGGGLVQAGGSLRLSCAASGYTFGANVMGWYRQAPGKERELVAAINTRGSRTYYADSVNGRFTISRDNAKNTVYLQMNSLKPEDTAVYYCAAALRKEYDYWGQGTQVTVSS | high polyreactivity
QVQLVESGGGLVQAGGSLRLSCAASGRNFGSYAMGWYRQAPGKERELVAGIRSVGSTNYADSVKGRFTISRDNAKNTVYLQMNSLKPEDTAVYYCAARLWHLSYAGQGGDYWGQGTQVTVSS | low polyreactivity
